Measured values as given in PMC8760323, “Single-chain tandem macrocyclic peptides as a scaffold for growth factor and cytokine mimetics” (Communications Biology, 2022).
Positions of bridges follow the written chain, without caps; N, C: chain ends. No end group written: not given here.

T1: human EPOR ectodomain-Fc (Homo sapiens, UniProt P19235)
T1 construct: human EPOR ectodomain-Fc; purchased R&D Systems
T1 sequence (P19235 25-250 limits assumed): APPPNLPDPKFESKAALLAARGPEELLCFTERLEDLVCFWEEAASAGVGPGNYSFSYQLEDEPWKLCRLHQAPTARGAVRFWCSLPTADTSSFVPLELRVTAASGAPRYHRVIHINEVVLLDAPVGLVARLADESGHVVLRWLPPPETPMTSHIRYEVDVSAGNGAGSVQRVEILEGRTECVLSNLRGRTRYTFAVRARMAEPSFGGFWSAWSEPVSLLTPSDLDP

T2: EPOR (Homo sapiens, UniProt P19235)
T2 sequence (P19235 25-508): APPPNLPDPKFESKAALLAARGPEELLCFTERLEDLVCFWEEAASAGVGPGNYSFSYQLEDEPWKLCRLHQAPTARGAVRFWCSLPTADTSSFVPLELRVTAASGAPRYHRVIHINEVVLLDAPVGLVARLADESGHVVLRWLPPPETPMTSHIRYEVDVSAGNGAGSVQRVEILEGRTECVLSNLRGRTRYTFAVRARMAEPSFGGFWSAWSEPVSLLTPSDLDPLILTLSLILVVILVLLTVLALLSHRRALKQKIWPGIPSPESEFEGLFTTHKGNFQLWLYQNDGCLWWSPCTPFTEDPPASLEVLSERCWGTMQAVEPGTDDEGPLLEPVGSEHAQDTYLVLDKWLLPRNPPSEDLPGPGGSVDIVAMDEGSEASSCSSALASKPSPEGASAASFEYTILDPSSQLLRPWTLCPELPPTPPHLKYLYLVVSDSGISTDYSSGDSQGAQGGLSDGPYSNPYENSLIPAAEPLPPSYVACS

T3: Recombinant human EPOR ectodomain-Fc (human, UniProt P19235 25-250)
T3 construct: erythropoietin receptor (EPOR), human, ectodomain; Captured on the chip with a human antibody capture kit, by its Fc; also called EPOR-Fc; rhEPOR ectodomain-Fc; source: bought: R&D Systems
T3 sequence (looked up): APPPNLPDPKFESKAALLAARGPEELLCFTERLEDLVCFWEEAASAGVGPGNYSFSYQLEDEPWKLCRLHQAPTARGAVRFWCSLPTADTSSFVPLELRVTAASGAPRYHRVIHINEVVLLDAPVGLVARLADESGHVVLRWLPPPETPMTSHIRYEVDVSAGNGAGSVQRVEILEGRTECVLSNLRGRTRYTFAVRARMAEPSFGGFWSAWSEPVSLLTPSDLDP


Experiments:
[1] = target: T1, human EPOR ectodomain-Fc; experiment: SPR analysis, human EPOR ectodomain; format: binding; conditions: for binding against EPOR: exact dissociation constants not determinable, too slow dissociation
Method: (§1) Binding constants of the STaMPtides and monomeric macrocyclic peptides to their corresponding receptor ectodomains were determined by SPR analysis using Biacore T200 (Cytiva). HBS-EP + buffer (Cytiva) containing 0.1% dimethyl sulfoxide (DMSO; Sigma-Aldrich, St. Louis, MO, USA) was used as the running buffer. As ligands, recombinant human Met ectodomain-Fc and human EPOR ectodomain-Fc were immobilized to around 1000 response units on CM5 sensor chips using a human antibody capture kit (Cytiva). STaMPtides and monomeric macrocyclic peptides were injected in five concentrations at a flow rate of 30 μL/min using a single-cycle kinetics method. Binding constants were quantified by analysis of the 1:1 binding model.

[2] = target: T2, EPOR; experiment: EPOR-JAK2 functional assay (PathHunter); format: cell-based; conditions: for EPOR activation by serially diluted supernatants: decellularized supernatant; for EC50: purified, 3 h at room temperature, read-out: half-maximal effective concentration (EC50)
Method: Agonistic activity against EPOR was assessed using the PathHunter® eXpress EpoR-JAK2 Functional Assay Kit (DiscoverX) according to the manufacturer’s instructions. Briefly, cells were seeded on a 96-well cell culture plate and incubated overnight in 5% CO2 at 37 °C. […] The cells were lysed with a substrate reagent, and chemiluminescence was detected using a Nivo plate reader (PerkinElmer).

[3] = target: T4, recombinant human Met ectodomain-Fc (Homo sapiens, UniProt P08581); experiment: SPR analysis, human Met ectodomain; format: binding
T4 construct: recombinant human Met ectodomain-Fc; purchased R&D Systems
Method: as §1

[4] = system: Met; experiment: Cell-based phospho-Met ELISA (HuCCT1 cells); parameters: species or system human; conditions: phospho-Met ELISA and Erk signaling reporter assay
Method: The phosphorylation level of Met was evaluated according to a previously reported method[6],[32], with slight modifications. In brief, HuCCT-1 cells at a density of 10,000 cells/well were seeded on 96-well cell culture plates and incubated overnight in 5% CO2 at 37 °C. The cells were stimulated by rhHGF, purified HGF mimetic STaMPtides, and monomeric aMD4dY for 10 min in a 5% CO2 incubator at 37 °C. Next, cells were fixed using 4% paraformaldehyde in phosphate-buffered saline (PBS) for 20 min. Cells were washed three times with PBS and blocked with 1% BSA and 0.02% Triton X-100 in PBS for 30 min at room temperature. Cells were incubated with 1:1000 diluted phospho-Met (Tyr1234/1235) (D26) XP Rabbit mAb (Cell Signaling Technology) supplemented with 1% BSA in PBS at 4 °C overnight. After washing three times with PBS, the cells were incubated with 1:1000 diluted […] HRP-linked IgG antibody (Cell Signaling Technology) supplemented with 1% BSA in PBS at room temperature for 3 h. Cells were washed four times with PBS and incubated with 100 μL TMB substrate for 30 min. The reaction was stopped with an equal volume of 0.2 N sulfuric acid, and absorbance was quantified at 450 nm by the Molecular Imager ChemiDoc XRS System (Bio-Rad).

[5] = target: T3, Recombinant human EPOR ectodomain-Fc; experiment: SPR; Biacore T200; receptor ectodomain-Fc immobilised to around 1000 RU on CM5 chip by human antibody capture kit; peptides injected in five concentrations at 30 uL/min, single-cycle kinetics; HBS-EP+ buffer with 0.1% DMSO; 1:1 binding model; three runs (N 1-3) and their average
[6] = target: T3, Recombinant human EPOR ectodomain-Fc; experiment: SPR; Biacore T200; receptor ectodomain-Fc immobilised to around 1000 RU on CM5 chips with a human antibody capture kit; peptides injected in five concentrations at 30 uL/min, single-cycle kinetics; HBS-EP+ buffer with 0.1% DMSO; 1:1 binding model; mean and SD of triplicate experiments; conditions: both partners purified
[7] = system: hPBMCs; experiment: Colony-forming assay; format: cell-based, human; conditions: at doses of 33 ng/mL or higher, 13 days
Method: Next, 1.1 mL of the mixture was seeded in a 6-well cell culture plate and cultured for 13 days in 5% CO2 at 37 °C. At day 13, colony numbers were counted, and images were taken by inverted microscopy and BZ-X fluorescence microscopy.

[8] = target: T5, Recombinant human Met ectodomain-Fc (human, UniProt P08581 25-932); experiment: SPR; Biacore T200; receptor ectodomain-Fc immobilised to around 1000 RU on CM5 chips with a human antibody capture kit; peptides injected in five concentrations at 30 uL/min, single-cycle kinetics; HBS-EP+ buffer with 0.1% DMSO; 1:1 binding model; mean and SD of triplicate experiments; conditions: both partners purified
T5 construct: Met, receptor of hepatocyte growth factor, human, ectodomain; Captured on the chip with a human antibody capture kit, by its Fc; also called Met-Fc; source: bought: R&D Systems
T5 sequence (P08581 25-932): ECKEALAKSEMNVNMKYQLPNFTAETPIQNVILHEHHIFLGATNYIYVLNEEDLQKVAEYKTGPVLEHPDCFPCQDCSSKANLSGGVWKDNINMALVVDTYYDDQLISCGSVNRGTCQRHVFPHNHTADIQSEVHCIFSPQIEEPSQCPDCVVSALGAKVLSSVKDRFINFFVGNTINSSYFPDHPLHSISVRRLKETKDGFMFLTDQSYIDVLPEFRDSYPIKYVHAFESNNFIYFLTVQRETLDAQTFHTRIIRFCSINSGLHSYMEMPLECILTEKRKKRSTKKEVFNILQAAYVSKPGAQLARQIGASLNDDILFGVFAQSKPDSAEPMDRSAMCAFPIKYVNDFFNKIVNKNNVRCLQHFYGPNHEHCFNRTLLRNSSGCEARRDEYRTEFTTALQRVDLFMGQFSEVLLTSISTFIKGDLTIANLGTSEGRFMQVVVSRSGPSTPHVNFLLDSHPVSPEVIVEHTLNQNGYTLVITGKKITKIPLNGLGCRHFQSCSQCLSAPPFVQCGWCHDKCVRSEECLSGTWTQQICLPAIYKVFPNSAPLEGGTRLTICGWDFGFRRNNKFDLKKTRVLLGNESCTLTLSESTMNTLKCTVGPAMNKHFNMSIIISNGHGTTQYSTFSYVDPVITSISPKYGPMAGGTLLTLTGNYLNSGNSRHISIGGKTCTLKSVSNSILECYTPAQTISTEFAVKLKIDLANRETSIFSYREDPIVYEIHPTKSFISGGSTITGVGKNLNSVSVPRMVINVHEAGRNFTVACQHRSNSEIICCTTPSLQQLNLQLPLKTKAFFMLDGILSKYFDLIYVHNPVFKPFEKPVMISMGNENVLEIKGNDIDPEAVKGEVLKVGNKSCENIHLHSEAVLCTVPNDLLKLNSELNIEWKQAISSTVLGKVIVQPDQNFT

T4 sequence (P08581 25-932 limits assumed): as the sequence (P08581 25-932) above

| kd ([1]; Table S1, Average of N 1-3) | KD ([1]; Table S1, N 1) | kd ([1]; Table S1, N 1) | KD ([1]; Table S1, N 2) | kd ([1]; Table S1, N 2) | KD ([1]; Table S1, N 3) | kd ([1]; Table S1, N 3) | binding against EPOR [1] | Kd [5] | Kd [6] | Molecule | also measured |
| --- | --- | --- | --- | --- | --- | --- | --- | --- | --- | --- | --- |
| 1e-05 M⁻¹ s⁻¹ | 0.089 nM | 1e-05 M⁻¹ s⁻¹ | 0.15 nM | 1e-05 M⁻¹ s⁻¹ | 1.3 nM | 1e-05 M⁻¹ s⁻¹ | strong binding potency | – | – | CSCC[C@@H]1NC(=O)[C@H](Cc2c[nH]cn2)NC(=O)[C@@H](NC(=O)[C@H](C)NC(=O)[C@H](Cc2ccc(O)cc2)NC(=O)[C@H](CC(C)C)NC(=O)CNC(=O)CN)CSSC[C@@H](C(=O)N[C@@H](CCC(N)=O)C(=O)N2CCC[C@H]2C(=O)N[C@@H](CC(C)C)C(=O)N[C@@H](CCCNC(=N)N)C(=O)NCC(=O)O)NC(=O)[C@H](C(C)C)NC(=O)[C@H](Cc2c[nH]c3ccccc23)NC(=O)[C@H]([C@@H](C)O)NC(=O)[C@H](CCSC)NC(=O)[C@@H]2CCCN2C(=O)CNC1=O [EMP35, reference compound] | agonist potency weaker than STaMPtides [2]: ~ 1000 times |
| – | – | – | – | – | – | – | – | – | – | aMD4dY: modified macrocyclic Met-binding peptide: aMD4 without N-terminal D-Tyr, disulfide instead of thioether linkage (CRQFNRRTHEVWNLDC-OH; disulfide 1-16; N-terminus assumed; SMILES CC(C)C[C@@H]1NC(=O)[C@H](CC(N)=O)NC(=O)[C@H](Cc2c[nH]c3ccccc23)NC(=O)[C@H](C(C)C)NC(=O)[C@H](CCC(=O)O)NC(=O)[C@H](Cc2c[nH]cn2)NC(=O)[C@H]([C@@H](C)O)NC(=O)[C@H](CCCNC(=N)N)NC(=O)[C@H](CCCNC(=N)N)NC(=O)[C@H](CC(N)=O)NC(=O)[C@H](Cc2ccccc2)NC(=O)[C@H](CCC(N)=O)NC(=O)[C@H](CCCNC(=N)N)NC(=O)[C@@H](N)CSSC[C@@H](C(=O)O)NC(=O)[C@H](CC(=O)O)NC1=O) | binding to human Met [3]: retained its binding capacity to human Met; kd ([3]; Table S1, Average of N 1-3): 0.045 M⁻¹ s⁻¹; KD ([3]; Table S1, N 1): 39 nM; kd ([3]; Table S1, N 1): 0.04 M⁻¹ s⁻¹; KD ([3]; Table S1, N 2): 53 nM; kd ([3]; Table S1, N 2): 0.05 M⁻¹ s⁻¹; KD ([3]; Table S1, N 3): 44 nM; kd ([3]; Table S1, N 3): 0.044 M⁻¹ s⁻¹; Met phosphorylation and Erk-SRE signaling activation [4]: did not activate Met |
| – | – | – | – | – | – | – | – | < 0.0257 nM | < 0.03 nM | EMP-PA8 (designed binder, disulfide 9-18, 37-46 (inferred), Expressed with the CspB signal peptide of C. glutamicum ATCC13869; also called EMP-PA8 (STaMPtide); EPO mimetic STaMPtide; source: C. glutamicum YPS010, secreted into the supernatant, purified (RP-HPLC)) AETGGLYACHMGPMTWVCQPLRGAAPAAPAPGGLYACHMGPMTWVCQPLRG | – |
| – | – | – | – | – | – | – | – | < 0.0887 nM | < 0.5 nM | GGLYACHMGPMTWVCQPLRG (disulfide 6-15, also called EMP35 (Monomer); monomeric EMP35; source: synthetic peptide (GenScript Japan)) [EMP35] | – |
| – | – | – | – | – | – | – | – | < 0.0104 nM | < 0.013 nM | EMP-PA22 (designed binder, disulfide 9-18, 51-60 (inferred), Expressed with the CspB signal peptide of C. glutamicum ATCC13869; also called EMP-PA22 (STaMPtide); EPO mimetic STaMPtide; source: C. glutamicum YPS010, secreted into the supernatant, purified (RP-HPLC)) AETGGLYACHMGPMTWVCQPLRGAAPAAPAPAAPAAPAPAAPAAPGGLYACHMGPMTWVCQPLRG | – |
| 1e-05 M⁻¹ s⁻¹ | 0.014 nM | 1e-05 M⁻¹ s⁻¹ | 0.015 nM | 1e-05 M⁻¹ s⁻¹ | 0.01 nM | 1e-05 M⁻¹ s⁻¹ | strong binding potency | – | – | EMP-PA22: EPO mimetic STaMPtide, EMP35 dimerized with 22-amino-acid PA linker (disulfide 9-18, 51-60 (inferred)) AETGGLYACHMGPMTWVCQPLRGAAPAAPAPAAPAAPAPAAPAAPGGLYACHMGPMTWVCQPLRG | association rate higher than that of EMP35 [1]: 5–10 times; EPOR activation by serially diluted supernatants [2]: activated EPOR, even at high dilutions; EC50 [2]: 0.22 nM; erythroid colony formation efficiency [7]: equivalent to or higher than that of 10 ng/mL of rhEPO |
| – | – | – | – | – | – | – | – | – | – | CRQFNRRTHEVWNLDC-OH (disulfide 1-16; N-terminus assumed; SMILES CC(C)C[C@@H]1NC(=O)[C@H](CC(N)=O)NC(=O)[C@H](Cc2c[nH]c3ccccc23)NC(=O)[C@H](C(C)C)NC(=O)[C@H](CCC(=O)O)NC(=O)[C@H](Cc2c[nH]cn2)NC(=O)[C@H]([C@@H](C)O)NC(=O)[C@H](CCCNC(=N)N)NC(=O)[C@H](CCCNC(=N)N)NC(=O)[C@H](CC(N)=O)NC(=O)[C@H](Cc2ccccc2)NC(=O)[C@H](CCC(N)=O)NC(=O)[C@H](CCCNC(=N)N)NC(=O)[C@@H](N)CSSC[C@@H](C(=O)O)NC(=O)[C@H](CC(=O)O)NC1=O, also called aMD4dY (Monomer); monomeric aMD4dY; source: synthetic peptide (GenScript Japan)) [aMD4dY] | Kd [8]: 45 nM |

| Molecule | kd ([1]; Table S1, Average of N 1-3) | KD ([1]; Table S1, N 1) | kd ([1]; Table S1, N 1) | KD ([1]; Table S1, N 2) | kd ([1]; Table S1, N 2) | KD ([1]; Table S1, N 3) | kd ([1]; Table S1, N 3) | binding against EPOR [1] | Kd [5] | Kd [6] | also measured |
| --- | --- | --- | --- | --- | --- | --- | --- | --- | --- | --- | --- |
| AETGGLYACHMGPMTWVCQPLRGAAPAAPAPGGLYACHMGPMTWVCQPLRG (disulfide 9-18, 37-46) [EMP-PA8] | 1e-05 M⁻¹ s⁻¹ | 0.034 nM | 1e-05 M⁻¹ s⁻¹ | 0.026 nM | 1e-05 M⁻¹ s⁻¹ | 0.03 nM | 1e-05 M⁻¹ s⁻¹ | strong binding potency | – | – | association rate higher than that of EMP35 [1]: 5–10 times; Kd ([1]; Table S1, Average of N 1-3): 0.03 nM; EPOR activation by serially diluted supernatants [2]: activated EPOR, even at high dilutions; EC50 [2]: 0.022 nM |
